Data: PMC3005033
Like-named read-outs stand apart in the source and are kept apart here.

Experiments:
Experiment in all cases: co-IP
[1] = biological target: AMPA receptor subunit GluA2 (rat (endogenous in adult Sprague-Dawley rat brain)) (UniProt P19491)
[2] = biological target: AMPA receptor subunit GluA2 (rat (endogenous in adult Sprague-Dawley rat brain)) (UniProt P19491); remark: listed apart in the source
[3] = biological target: GluA2/3+GluA4 (rat (endogenous in adult Sprague-Dawley rat brain))
[4] = biological target: AMPA receptor subunit GluA1 (rat (endogenous in adult Sprague-Dawley rat brain)) (UniProt P19490)
Sequence of AMPA receptor subunit GluA1 (rat (endogenous in adult Sprague-Dawley rat brain)) (P19490 19-907): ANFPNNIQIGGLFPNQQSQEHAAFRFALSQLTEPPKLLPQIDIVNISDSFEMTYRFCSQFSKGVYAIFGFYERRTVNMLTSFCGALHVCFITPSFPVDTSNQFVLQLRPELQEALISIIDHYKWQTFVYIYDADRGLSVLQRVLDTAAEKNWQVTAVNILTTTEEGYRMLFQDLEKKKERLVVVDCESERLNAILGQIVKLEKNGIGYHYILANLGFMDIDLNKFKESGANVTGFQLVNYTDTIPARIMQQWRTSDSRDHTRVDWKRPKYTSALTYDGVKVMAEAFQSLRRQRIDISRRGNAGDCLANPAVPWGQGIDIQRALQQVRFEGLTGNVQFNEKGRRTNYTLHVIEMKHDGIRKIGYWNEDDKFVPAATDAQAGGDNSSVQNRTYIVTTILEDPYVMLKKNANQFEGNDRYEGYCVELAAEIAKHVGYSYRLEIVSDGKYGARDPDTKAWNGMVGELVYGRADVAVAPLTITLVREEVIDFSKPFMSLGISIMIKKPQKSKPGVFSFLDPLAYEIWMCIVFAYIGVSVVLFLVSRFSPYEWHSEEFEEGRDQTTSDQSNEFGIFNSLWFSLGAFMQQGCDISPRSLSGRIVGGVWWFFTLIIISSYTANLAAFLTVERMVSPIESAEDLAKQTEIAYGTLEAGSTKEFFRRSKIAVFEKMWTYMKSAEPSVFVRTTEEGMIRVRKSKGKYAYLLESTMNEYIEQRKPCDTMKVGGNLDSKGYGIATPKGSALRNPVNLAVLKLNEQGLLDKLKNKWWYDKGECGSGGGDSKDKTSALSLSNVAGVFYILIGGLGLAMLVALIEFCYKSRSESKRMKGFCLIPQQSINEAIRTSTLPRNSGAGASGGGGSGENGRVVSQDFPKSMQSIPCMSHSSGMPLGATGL

[5] = biological target: AMPA receptor subunit GluA1 (rat (endogenous in adult Sprague-Dawley rat brain)) (UniProt P19490); remark: listed apart in the source
[6] = biological target: AMPA receptor subunit GluA1 (rat (endogenous in adult Sprague-Dawley rat brain)) (UniProt P19490); remark: listed apart in the source
[7] = biological target: AMPA receptor subunit GluA1 (rat (endogenous in adult Sprague-Dawley rat brain)) (UniProt P19490); remark: listed apart in the source

Sequence of AMPA receptor subunit GluA1 (P19490 19-907): as above
Sequence of AMPA receptor subunit GluA2 (P19491 22-883): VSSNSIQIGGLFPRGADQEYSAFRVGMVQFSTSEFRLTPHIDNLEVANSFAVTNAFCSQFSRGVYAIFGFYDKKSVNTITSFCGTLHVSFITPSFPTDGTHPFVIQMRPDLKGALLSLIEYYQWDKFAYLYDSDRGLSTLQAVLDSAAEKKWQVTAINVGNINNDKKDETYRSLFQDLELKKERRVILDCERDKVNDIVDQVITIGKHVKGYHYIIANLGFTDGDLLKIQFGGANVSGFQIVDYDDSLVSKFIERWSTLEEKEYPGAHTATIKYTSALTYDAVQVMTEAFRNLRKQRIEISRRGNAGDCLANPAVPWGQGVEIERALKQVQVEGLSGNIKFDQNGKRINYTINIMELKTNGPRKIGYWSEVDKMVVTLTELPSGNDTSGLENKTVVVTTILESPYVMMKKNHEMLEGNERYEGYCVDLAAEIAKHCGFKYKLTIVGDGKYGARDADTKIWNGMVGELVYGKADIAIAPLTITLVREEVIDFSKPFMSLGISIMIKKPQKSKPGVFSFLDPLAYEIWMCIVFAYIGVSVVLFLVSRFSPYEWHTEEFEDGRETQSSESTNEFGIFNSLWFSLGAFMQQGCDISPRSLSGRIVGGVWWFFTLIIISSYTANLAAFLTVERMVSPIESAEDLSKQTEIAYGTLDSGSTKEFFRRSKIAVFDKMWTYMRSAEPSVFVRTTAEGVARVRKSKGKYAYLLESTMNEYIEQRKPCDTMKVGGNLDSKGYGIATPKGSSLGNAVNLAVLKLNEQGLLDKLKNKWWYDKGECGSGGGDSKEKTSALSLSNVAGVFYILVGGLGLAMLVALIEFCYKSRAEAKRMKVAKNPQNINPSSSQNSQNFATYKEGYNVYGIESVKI
Sequence of AMPA receptor subunit GluA2 (rat (endogenous in adult Sprague-Dawley rat brain)) (P19491 22-883): as above

percent of GluA1 complexed with GluA2 (the paper's estimate) [1] [%] | percent of GluA1 complexed with GluA2 (the paper's estimate) [2] [%] | percent of GluA1 removed by IP with GluA2/3+GluA4 antibodies [3] [%] | percent of GluA2 left in the unbound fraction after IP with GluA1 antibody [4] [%] | percent of GluA2 left in the unbound fraction after IP with GluA1 antibody [5] [%] | percent of GluA2 left in the unbound fraction after IP with GluA1 antibody [6] [%] | percent of GluA2 left in the unbound fraction after IP with GluA1 antibody [7] [%] | Substance
> 80 | > 80 | 93 | – | – | – | – | AMPA receptor subunit GluA1 (from UniProt P19490 19-907)
– | – | – | 65 | 53 | 55 | 62 | AMPA receptor subunit GluA2 (from UniProt P19491 22-883)
